According to patent US6033823A, “Mutated penicillin G acylase genes” (priority 1994, dated 2000):

Columns and labels:
Assay type in all cases: biochemical, Alcaligenes faecalis
[1] = substrate: CC1(C)S[C@@H]2[C@H](NC(=O)COc3ccccc3)C(=O)N2[C@H]1C(=O)O; assay: Deacylation kinetics and phenylacetic acid product inhibition, wild type PenG acylase; conditions: other: wild type; 40 mM NaH2PO4, pH 7.5, 37° C.; pH 7.5; 37.0 °C
Procedure: (§1) In order to determine enzymatic activity the acylases were incubated with substrate at room temperature in buffered solution. In case β-lactamase impurity was expected to be present in the enzyme preparations, 1.0 mM -lactamase inhibitor 6-bromo-penicillanic acid was added to the assay. The reactions were stopped by adding an excess PMSF. For some mutants which were less sensitive to PMSF inhibition, the reactions were stopped by adding 0.5 M HCl or 0.5 M acetic acid until the pH was between 3 and 4. When reactions were subsequently analysed by HPLC, the reactions were stopped by dilution with the correponding elution solvent (see table 1). In addition substrates were incubated under assay conditions in absence of enzyme. If necessary enzyme assays were corrected for non-enzymatic hydrolysis
(§2) The composition of the reaction mixtures was determined by high-performanceliquid chromatography (HPLC)(table 1). Concentrations were determined by using standards of known concentration.
(§3) In a continuous assay Penicillin G acylase was assayed spectro-fotometrically with the chromogenic substrate NIPAB [6-nitro-3-phenylacetamido-benzoic acid]. The liberation of 3-amino-6-nitrobenzoic acid was monitored by measuring the extinction at 405 nm in a Kontron 610 kinetic spectrofotometer. […] Initial rate measurements were performed with varying concentration of NIPAB.
(§4) The kinetics of enzymatic hydrolysis of PenG, PenV, CefG were also studied by alkaline titration (0, OlM KOH), using a Radiometer pH-stat. All experiments were carried out in a buffer free medium.
(§5) Initial rate measurements were performed with excess substrate over the enzyme. Catalytic parameters were derived from least-squares fitting of the measured initial rates plotted for various substrate concentrations according to the Michaelis-Menten equation.
(§6) The complete conversion of NIPAB was followed as a funtion of time at 20, 50 and 100 μM NIPAB by following the increase in absorbtion at 405 nm. Products of this conversion are phenylacetic acid and 3-amino-6-nitrobenzoic acid. […] The progress curves of the deacylation of NIPAB could be fitted very well when product inhibition by phenylacetic acid was taken into account. The dissociation constants (usually referred to as inhibition constant Ki) for phenylacetic acid which could be derived from the progress curves is shown in table 11. For these mutants the yield of the conversion in a fixed time span is higher than for wild type. Alternatively, in order to obtain a certain yield a shorter conversion time is needed for the mutants.

[2] = substrate: CC1(C)S[C@@H]2[C@H](NC(=O)Cc3ccccc3)C(=O)N2[C@H]1C(=O)O; assay: as above; conditions: other: wild type; 40 mM NaH2PO4, pH 7.5, 37° C.; pH 7.5; 37.0 °C
Procedure: as §1, §2, §3, §4, §5, §6

[3] = substrate: CC1(C)S[C@@H]2[C@H](NC(=O)[C@H](N)c3ccc(O)cc3)C(=O)N2[C@H]1C(=O)O; assay: as above; conditions: other: wild type; 20 mM NaH2PO4, pH 7.0, 37° C.; pH 7.0; 37.0 °C
Procedure: as §1, §2, §3, §4, §5, §6

[4] = substrate: CC1(C)S[C@@H]2[C@H](NC(=O)[C@H](N)c3ccccc3)C(=O)N2[C@H]1C(=O)O; assay: as above; conditions: other: wild type; 20 mM NaH2PO4, pH 7.0, 37° C.; pH 7.0; 37.0 °C
Procedure: as §1, §2, §3, §4, §5, §6

[5] = substrate: CC1=C(C(=O)O)N2C(=O)[C@@H](NC(=O)Cc3ccccc3)[C@H]2SC1; assay: as above; conditions: other: wild type; 20 mM NaH2PO4, pH 7.5, 37° C.; pH 7.5; 37.0 °C
Procedure: as §1, §2, §3, §4, §5, §6

[6] = substrate: NC(=O)[C@H](N)c1ccccc1; assay: as above; conditions: other: wild type; 20 mM NaH2PO4, pH 7.0, 37° C.; pH 7.0; 37.0 °C
Procedure: as §1, §2, §3, §4, §5, §6

[7] = substrate: O=C(Cc1ccccc1)Nc1ccc([N+](=O)[O-])c(C(=O)O)c1; assay: as above; conditions: other: wild type; 0.1M NaH2PO4, pH 7.5, 25° C.; pH 7.5; 25.0 °C
Procedure: as §1, §2, §3, §4, §5, §6

[8] = substrate: CC1(C)S[C@@H]2[C@H](NC(=O)COc3ccccc3)C(=O)N2[C@H]1C(=O)O; assay: Deacylation kinetics and phenylacetic acid product inhibition, mutant B:L56K; conditions: other: B:L56K; 40 mM NaH2PO4, pH 7.5, 37° C.; pH 7.5; 37.0 °C
Procedure: as §1, §2
as §3, with “NIPAB. […]” for “NIPAB.”
as §5, §6

[9] = substrate: CC1(C)S[C@@H]2[C@H](NC(=O)Cc3ccccc3)C(=O)N2[C@H]1C(=O)O; assay: as above; conditions: other: B:L56K; 40 mM NaH2PO4, pH 7.5, 37° C.; pH 7.5; 37.0 °C
Procedure: as §1, §2
as §3, with “NIPAB. […]” for “NIPAB.”
as §5, §6

[10] = substrate: CC1(C)S[C@@H]2[C@H](NC(=O)[C@H](N)c3ccccc3)C(=O)N2[C@H]1C(=O)O; assay: as above; conditions: other: B:L56K; 20 mM NaH2PO4, pH 7.0, 37° C.; pH 7.0; 37.0 °C
Procedure: as §1, §2
as §3, with “NIPAB. […]” for “NIPAB.”
as §5, §6

[11] = substrate: CC1=C(C(=O)O)N2C(=O)[C@@H](NC(=O)Cc3ccccc3)[C@H]2SC1; assay: as above; conditions: other: B:L56K; 20 mM NaH2PO4, pH 7.5, 37° C.; pH 7.5; 37.0 °C
Procedure: as §1, §2
as §3, with “NIPAB. […]” for “NIPAB.”
as §5, §6

[12] = substrate: NC(=O)[C@H](N)c1ccccc1; assay: as above; conditions: other: B:L56K; 20 mM NaH2PO4, pH 7.0, 37° C.; pH 7.0; 37.0 °C
Procedure: as §1, §2
as §3, with “NIPAB. […]” for “NIPAB.”
as §5, §6

[13] = substrate: O=C(Cc1ccccc1)Nc1ccc([N+](=O)[O-])c(C(=O)O)c1; assay: as above; conditions: other: B:L56K; 0.1M NaH2PO4, pH 7.5, 25° C.; pH 7.5; 25.0 °C
Procedure: as §1, §2
as §3, with “NIPAB. […]” for “NIPAB.”
as §5, §6

B1: Alcaligenes faecalis Penicillin G acylase, wild type (α subunit SEQ ID NO:27, β subunit SEQ ID NO:32) (Alcaligenes faecalis) (protein)
chain 1: QVQSVEVMRDSYGVPHVFADSHYGLYYGYGYAVAQDRLFQMDMARRSFVGTTAAVLGPGEQDAYVKYDMQVRQNFTPASIQRQIAALSKDERDIFRGYADGYNAYLEQVRRRPELLPKEYVDFDFQPEPLTDFDVVMIWVGSMANRFSDTNLEVTALAMRQSLEKQHGPERGRALFDELLWINDTTAPTTVPAPAAEHKPQA
chain 2: SNLWSTRPERVQEGSTVLINGPQFGWYNPAYTYGIGLHGAGFDVVGNTPFAYPIVLFGTNSEIAWGATAGPQDVVDIYQEKLNPSRADQYWFNNAWRTMEQRKERIQVRGQADREMTIWRTVHGPVMQFDYDQGAAYSKKRSWDGYEVQSLLAWLNVAKARNWTEFLDQASKMAISINWYYADKHGNIGYVSPAFLPQRPADQDIRVPAKGDGSMEWLGIKSFDAIPKAYNPPQGYLVNWNNKPAPDKTNTDTYYWTYGDRMNELVSQYQQKDLFSVQEIWEFNQKASYSDVNWRYFRPHLEKLAQQLPADDSSKAALTMLLAWDGMEQDQGGQNAGPARVLFKTWLEEMYKQVLMPVVPESHRAMYSQTGFATQQGPNPGSINLSMGTKVLLRALVLEAHPDPKRVNVFGERSSQEIMHTALQNAQARLSQEQGAQMARWTMPTSVHRFSDKNFTGTPQTMPGNTFAFTGYQNRGTENNRVVFDAKGVEFCDAMPPGQSGFTDRNGVRSPHYEDQLKLYENFECKTMDVTHADIRRNAQSSTMLLIQPQP
notes: alpha 202 aa, beta 551 aa; likely recombinant, E. coli host
Km [1]: 18 µM | Vmax [1]: 4.0 U/mg | Km [2]: 2 µM | Vmax [2]: 45.5 U/mg | Km [3]: 14000 µM | Vmax [3]: .9 U/mg | Km [4]: 700 µM | Vmax [4]: 23.5 U/mg | Km [5]: 1 µM | Vmax [5]: 12.5 U/mg | Km [6]: 8600 µM | Vmax [6]: 27.5 U/mg | Km [7]: 4 µM | Vmax [7]: 37.0 U/mg

B2: Alcaligenes faecalis Penicillin G acylase mutant B:L56K (Alcaligenes faecalis; L321K) (protein)
chain 1: QVQSVEVMRDSYGVPHVFADSHYGLYYGYGYAVAQDRLFQMDMARRSFVGTTAAVLGPGEQDAYVKYDMQVRQNFTPASIQRQIAALSKDERDIFRGYADGYNAYLEQVRRRPELLPKEYVDFDFQPEPLTDFDVVMIWVGSMANRFSDTNLEVTALAMRQSLEKQHGPERGRALFDELLWINDTTAPTTVPAPAAEHKPQA
chain 2: SNLWSTRPERVQEGSTVLINGPQFGWYNPAYTYGIGLHGAGFDVVGNTPFAYPIVKFGTNSEIAWGATAGPQDVVDIYQEKLNPSRADQYWFNNAWRTMEQRKERIQVRGQADREMTIWRTVHGPVMQFDYDQGAAYSKKRSWDGYEVQSLLAWLNVAKARNWTEFLDQASKMAISINWYYADKHGNIGYVSPAFLPQRPADQDIRVPAKGDGSMEWLGIKSFDAIPKAYNPPQGYLVNWNNKPAPDKTNTDTYYWTYGDRMNELVSQYQQKDLFSVQEIWEFNQKASYSDVNWRYFRPHLEKLAQQLPADDSSKAALTMLLAWDGMEQDQGGQNAGPARVLFKTWLEEMYKQVLMPVVPESHRAMYSQTGFATQQGPNPGSINLSMGTKVLLRALVLEAHPDPKRVNVFGERSSQEIMHTALQNAQARLSQEQGAQMARWTMPTSVHRFSDKNFTGTPQTMPGNTFAFTGYQNRGTENNRVVFDAKGVEFCDAMPPGQSGFTDRNGVRSPHYEDQLKLYENFECKTMDVTHADIRRNAQSSTMLLIQPQP
notes: alpha 202 aa, beta 551 aa; recombinant, E. coli host
Km [8]: 35 µM | Vmax [8]: 15.5 U/mg | Km [9]: 1 µM | Vmax [9]: 36.4 U/mg | Km [10]: 1700 µM | Vmax [10]: 20.9 U/mg | Km [11]: 10 µM | Vmax [11]: 25.5 U/mg | Km [12]: 49000 µM | Vmax [12]: 18.2 U/mg | Km [13]: 28 µM | Vmax [13]: 47.3 U/mg
